Laboratory results as given in the supplement of paper PMC9112550, “Optimization of the antimicrobial peptide Bac7 by deep mutational scanning” (BMC Biology, 2022).

system: Escherichia coli TOP10; test: shrunken log2 fold change of peptide-encoding DNA abundance (4.5 h post-induction vs induction); higher = less antimicrobial activity (less host growth inhibition); conditions: time post-induction: 4.5 h; library: site-saturation at positions 5, 18, 19, 20
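Note: peptides expressed intracellularly from a pBAD plasmid library in pooled LB shake-flask culture, induced with 0.3% L-arabinose, DNA abundance read by NGS, three biological replicates, DESeq2 with apeglm shrinkage.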

RRIRMRPPRLPRPRPRPPYKPRP and RRIRERPPRLPRPRPRPPFKPRP are within 0.2 log units of each other in “shrunken log2 fold change” value: -0.163 for the first, -0.0871 for the second.

RRIRERPPRLPRPRPRPFLDPRP and RRIRMRPPRLPRPRPRPYDPPRP are within 0.2 log units of each other in “shrunken log2 fold change” value: -0.318 for the first, -0.328 for the second.

Going from RRIRNRPPRLPRPRPRPSTAPRP to RRIRVRPPRLPRPRPRPPAYPRP, the “shrunken log2 fold change” value rises from -0.28 to 0.0576.

First: RRIRTRPPRLPRPRPRPCGTPRP
Second: RRIRMRPPRLPRPRPRPRTQPRP
The “shrunken log2 fold change” value of the first is lower: -0.0194 for the first, 0.97 for the second.

Compared with RRIRRRPPRLPRPRPRPKVLPRP, RRIRFRPPRLPRPRPRPLLVPRP is lower in “shrunken log2 fold change” value: 0.378 for the first, 0.0528 for the second.

RRIRQRPPRLPRPRPRPECPPRP and RRIRQRPPRLPRPRPRPEPQPRP are within 0.2 log units of each other in “shrunken log2 fold change” value: 0.184 for the first, 0.00762 for the second.

RRIRLRPPRLPRPRPRPQMTPRP and RRIRPRPPRLPRPRPRPPCLPRP are within 0.2 log units of each other in “shrunken log2 fold change” value: -0.0928 for the first, -0.153 for the second.

Going from RRIRRRPPRLPRPRPRPGMQPRP to RRIRCRPPRLPRPRPRPRRAPRP, the “shrunken log2 fold change” value rises from 0.245 to 0.64.

RRIRGRPPRLPRPRPRPQEDPRP and RRIRPRPPRLPRPRPRPRDSPRP are within 0.2 log units of each other in “shrunken log2 fold change” value: 0.291 for the first, 0.334 for the second.

First: RRIRSRPPRLPRPRPRPACHPRP
Second: RRIRERPPRLPRPRPRPIYSPRP
The “shrunken log2 fold change” value of the first is higher: -0.0735 for the first, -0.413 for the second.

First: RRIRPRPPRLPRPRPRPPMAPRP
Second: RRIRERPPRLPRPRPRPVMKPRP
The “shrunken log2 fold change” value of the first is higher: 0.338 for the first, -0.236 for the second.

RRIRRRPPRLPRPRPRPSHKPRP and RRIRQRPPRLPRPRPRPMTWPRP are within 0.2 log units of each other in “shrunken log2 fold change” value: -0.0351 for the first, -0.0225 for the second.

Compared with RRIRQRPPRLPRPRPRPTLCPRP, RRIRPRPPRLPRPRPRPMTCPRP is lower in “shrunken log2 fold change” value: 0.00185 for the first, -0.251 for the second.

RRIRPRPPRLPRPRPRPTGGPRP and RRIRDRPPRLPRPRPRPPCAPRP are within 0.2 log units of each other in “shrunken log2 fold change” value: 0.392 for the first, 0.371 for the second.

Compared with RRIRSRPPRLPRPRPRPDRGPRP, RRIRVRPPRLPRPRPRPQIYPRP is lower in “shrunken log2 fold change” value: -0.0384 for the first, -0.251 for the second.

RRIRRRPPRLPRPRPRPIHTPRP and RRIRQRPPRLPRPRPRPESTPRP are within 0.2 log units of each other in “shrunken log2 fold change” value: 0.00898 for the first, -0.0105 for the second.

First: RRIRVRPPRLPRPRPRPALPPRP
Second: RRIRKRPPRLPRPRPRPQITPRP
The “shrunken log2 fold change” value of the first is higher: 0.329 for the first, -0.0657 for the second.

First: RRIRARPPRLPRPRPRPSNWPRP
Second: RRIRFRPPRLPRPRPRPDWEPRP
The “shrunken log2 fold change” value of the first is higher: 0.253 for the first, -0.169 for the second.

First: RRIRGRPPRLPRPRPRPTNPPRP
Second: RRIRWRPPRLPRPRPRPFLNPRP
The “shrunken log2 fold change” value of the first is higher: 0.367 for the first, -0.425 for the second.

RRIRHRPPRLPRPRPRPPCVPRP and RRIRYRPPRLPRPRPRPSIIPRP are within 0.2 log units of each other in “shrunken log2 fold change” value: -0.108 for the first, -0.236 for the second.

RRIRIRPPRLPRPRPRPDDLPRP and RRIRSRPPRLPRPRPRPKGRPRP are within 0.2 log units of each other in “shrunken log2 fold change” value: 0.118 for the first, 0.0764 for the second.

RRIRCRPPRLPRPRPRPRYVPRP and RRIRHRPPRLPRPRPRPDRMPRP are within 0.2 log units of each other in “shrunken log2 fold change” value: -0.22 for the first, -0.093 for the second.

RRIRVRPPRLPRPRPRPIYWPRP and RRIRMRPPRLPRPRPRPPSNPRP are within 0.2 log units of each other in “shrunken log2 fold change” value: -0.0757 for the first, 0.104 for the second.

Compared with RRIRSRPPRLPRPRPRPIIQPRP, RRIRMRPPRLPRPRPRPFQVPRP is higher in “shrunken log2 fold change” value: -0.429 for the first, 0.0921 for the second.

First: RRIRCRPPRLPRPRPRPPVVPRP
Second: RRIRRRPPRLPRPRPRPFIMPRP
The “shrunken log2 fold change” value of the first is higher: 0.0152 for the first, -0.251 for the second.

Going from RRIRYRPPRLPRPRPRPYSCPRP to RRIRERPPRLPRPRPRPAREPRP, the “shrunken log2 fold change” value rises from -0.344 to 0.0588.

RRIRKRPPRLPRPRPRPCPYPRP and RRIRIRPPRLPRPRPRPFQIPRP are within 0.2 log units of each other in “shrunken log2 fold change” value: 0.151 for the first, 0.0698 for the second.

Compared with RRIRKRPPRLPRPRPRPDPQPRP, RRIRTRPPRLPRPRPRPHMTPRP is lower in “shrunken log2 fold change” value: 0.729 for the first, -0.265 for the second.

Going from RRIRERPPRLPRPRPRPCWVPRP to RRIRVRPPRLPRPRPRPGHGPRP, the “shrunken log2 fold change” value rises from -0.26 to 0.00601.

Going from RRIRNRPPRLPRPRPRPRIQPRP to RRIRPRPPRLPRPRPRPRPAPRP, the “shrunken log2 fold change” value rises from 0.0619 to 0.529.

Compared with RRIRSRPPRLPRPRPRPMEPPRP, RRIRGRPPRLPRPRPRPKIGPRP is higher in “shrunken log2 fold change” value: 0.0473 for the first, 0.752 for the second.

Going from RRIRVRPPRLPRPRPRPHQVPRP to RRIRLRPPRLPRPRPRPPTEPRP, the “shrunken log2 fold change” value rises from -0.111 to 0.296.

RRIRWRPPRLPRPRPRPFALPRP and RRIRKRPPRLPRPRPRPIMCPRP are within 0.2 log units of each other in “shrunken log2 fold change” value: -0.129 for the first, -0.0176 for the second.

Compared with RRIRWRPPRLPRPRPRPLQKPRP, RRIRYRPPRLPRPRPRPIWQPRP is lower in “shrunken log2 fold change” value: 1.73 for the first, -0.105 for the second.

RRIRMRPPRLPRPRPRPTEEPRP and RRIRLRPPRLPRPRPRPAVYPRP are within 0.2 log units of each other in “shrunken log2 fold change” value: -0.000967 for the first, 0.00171 for the second.

First: RRIRYRPPRLPRPRPRPMGPPRP
Second: RRIRNRPPRLPRPRPRPYCRPRP
The “shrunken log2 fold change” value of the first is higher: -0.121 for the first, -0.982 for the second.

RRIRFRPPRLPRPRPRPIAWPRP and RRIRNRPPRLPRPRPRPDSVPRP are within 0.2 log units of each other in “shrunken log2 fold change” value: -0.0725 for the first, 0.119 for the second.

Compared with RRIRARPPRLPRPRPRPNKKPRP, RRIRVRPPRLPRPRPRPPAKPRP is higher in “shrunken log2 fold change” value: -0.00857 for the first, 0.603 for the second.

First: RRIRPRPPRLPRPRPRPCRYPRP
Second: RRIRKRPPRLPRPRPRPCMFPRP
The “shrunken log2 fold change” value of the first is higher: 0.0858 for the first, -0.167 for the second.

RRIRNRPPRLPRPRPRPGTDPRP and RRIRPRPPRLPRPRPRPLIGPRP are within 0.2 log units of each other in “shrunken log2 fold change” value: -0.0425 for the first, 0.009 for the second.

RRIRSRPPRLPRPRPRPIFDPRP and RRIRYRPPRLPRPRPRPNRTPRP are within 0.2 log units of each other in “shrunken log2 fold change” value: -0.0516 for the first, -0.211 for the second.

First: RRIRCRPPRLPRPRPRPVHPPRP
Second: RRIRIRPPRLPRPRPRPGFGPRP
The “shrunken log2 fold change” value of the first is lower: -0.375 for the first, 0.28 for the second.

RRIRNRPPRLPRPRPRPQTQPRP and RRIRSRPPRLPRPRPRPGVSPRP are within 0.2 log units of each other in “shrunken log2 fold change” value: 0.153 for the first, 0.119 for the second.

RRIRRRPPRLPRPRPRPTMTPRP and RRIRSRPPRLPRPRPRPGPGPRP are within 0.2 log units of each other in “shrunken log2 fold change” value: 0.487 for the first, 0.599 for the second.

Going from RRIRMRPPRLPRPRPRPNRDPRP to RRIRRRPPRLPRPRPRPRPRPRP, the “shrunken log2 fold change” value rises from 0.00277 to 0.86.

Going from RRIRSRPPRLPRPRPRPPNTPRP to RRIRQRPPRLPRPRPRPNWNPRP, the “shrunken log2 fold change” value falls from 0.158 to -0.206.

RRIRTRPPRLPRPRPRPCGNPRP and RRIRVRPPRLPRPRPRPTYVPRP are within 0.2 log units of each other in “shrunken log2 fold change” value: -0.0693 for the first, 0.00864 for the second.

RRIRDRPPRLPRPRPRPYSMPRP and RRIRSRPPRLPRPRPRPMSIPRP are within 0.2 log units of each other in “shrunken log2 fold change” value: -0.0516 for the first, -0.214 for the second.

First: RRIRERPPRLPRPRPRPGHVPRP
Second: RRIRFRPPRLPRPRPRPMEIPRP
The “shrunken log2 fold change” value of the first is higher: -0.00285 for the first, -0.298 for the second.

Going from RRIRFRPPRLPRPRPRPQAWPRP to RRIRNRPPRLPRPRPRPLYDPRP, the “shrunken log2 fold change” value falls from 0.15 to -0.0765.

RRIRLRPPRLPRPRPRPQDIPRP and RRIRNRPPRLPRPRPRPQSGPRP are within 0.2 log units of each other in “shrunken log2 fold change” value: 0.133 for the first, 0.0495 for the second.

Compared with RRIRWRPPRLPRPRPRPRTLPRP, RRIRWRPPRLPRPRPRPHLCPRP is lower in “shrunken log2 fold change” value: 0.565 for the first, -0.147 for the second.

Going from RRIRFRPPRLPRPRPRPQPSPRP to RRIRYRPPRLPRPRPRPGNTPRP, the “shrunken log2 fold change” value falls from 0.279 to -1.18.

Going from RRIRFRPPRLPRPRPRPYSRPRP to RRIRPRPPRLPRPRPRPLCIPRP, the “shrunken log2 fold change” value falls from -0.187 to -0.403.

RRIRSRPPRLPRPRPRPPCIPRP and RRIRIRPPRLPRPRPRPQHCPRP are within 0.2 log units of each other in “shrunken log2 fold change” value: -0.105 for the first, -0.248 for the second.

Going from RRIRFRPPRLPRPRPRPMDNPRP to RRIRGRPPRLPRPRPRPLGLPRP, the “shrunken log2 fold change” value rises from 0.000389 to 0.841.

First: RRIRFRPPRLPRPRPRPGSNPRP
Second: RRIRNRPPRLPRPRPRPHSKPRP
The “shrunken log2 fold change” value of the first is lower: -0.624 for the first, -0.117 for the second.

Compared with RRIRSRPPRLPRPRPRPFNNPRP, RRIRLRPPRLPRPRPRPNDKPRP is lower in “shrunken log2 fold change” value: -0.458 for the first, -0.962 for the second.

Compared with RRIRSRPPRLPRPRPRPYPGPRP, RRIRSRPPRLPRPRPRPPEWPRP is higher in “shrunken log2 fold change” value: -0.199 for the first, 0.263 for the second.

First: RRIRWRPPRLPRPRPRPEHYPRP
Second: RRIRTRPPRLPRPRPRPGKIPRP
The “shrunken log2 fold change” value of the first is lower: -1.14 for the first, 0.0168 for the second.

RRIRQRPPRLPRPRPRPQFDPRP and RRIRKRPPRLPRPRPRPFIMPRP are within 0.2 log units of each other in “shrunken log2 fold change” value: -0.178 for the first, -0.191 for the second.

RRIRRRPPRLPRPRPRPEWYPRP and RRIRIRPPRLPRPRPRPFDCPRP are within 0.2 log units of each other in “shrunken log2 fold change” value: -0.128 for the first, -0.0028 for the second.

RRIRWRPPRLPRPRPRPVEGPRP was tested, and the “shrunken log2 fold change” value was -0.0555.
